From the supplement of paper PMC9112550, “Optimization of the antimicrobial peptide Bac7 by deep mutational scanning” (BMC Biology, 2022)

Test system: Escherichia coli TOP10
Test: shrunken log2 fold change of peptide-encoding DNA abundance (4.5 h post-induction vs induction); higher = less antimicrobial activity (less host growth inhibition)
Conditions: time post-induction: 4.5 h; library: site-saturation at positions 5, 18, 19, 20
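Further: peptides expressed intracellularly from a pBAD plasmid library in pooled LB shake-flask culture, induced with 0.3% L-arabinose, DNA abundance read by NGS, three biological replicates, DESeq2 with apeglm shrinkage.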

Sequence	shrunken log2 fold change
RRIRDRPPRLPRPRPRPLVGPRP	0.337
RRIRDRPPRLPRPRPRPLVNPRP	0.426
RRIRDRPPRLPRPRPRPMADPRP	0.523
RRIRDRPPRLPRPRPRPMCIPRP	-0.121
RRIRDRPPRLPRPRPRPMDDPRP	-0.000946
RRIRDRPPRLPRPRPRPMEHPRP	0.208
RRIRDRPPRLPRPRPRPMFCPRP	2.64
RRIRDRPPRLPRPRPRPMFGPRP	0.12
RRIRDRPPRLPRPRPRPMGMPRP	-0.069
RRIRDRPPRLPRPRPRPMGPPRP	-0.00107
RRIRDRPPRLPRPRPRPMHSPRP	0.117
RRIRDRPPRLPRPRPRPMIHPRP	0.318
RRIRDRPPRLPRPRPRPMMSPRP	-0.0107
RRIRDRPPRLPRPRPRPMNWPRP	0.0175
RRIRDRPPRLPRPRPRPMPAPRP	0.354
RRIRDRPPRLPRPRPRPMPLPRP	-0.0224
RRIRDRPPRLPRPRPRPMPMPRP	0.0753
RRIRDRPPRLPRPRPRPMQDPRP	-0.0272
RRIRDRPPRLPRPRPRPMRAPRP	0.953
RRIRDRPPRLPRPRPRPMSNPRP	-0.0263
RRIRDRPPRLPRPRPRPMSWPRP	0.262
RRIRDRPPRLPRPRPRPMTNPRP	-0.184
RRIRDRPPRLPRPRPRPMVLPRP	0.359
RRIRDRPPRLPRPRPRPMVPPRP	0.0555
RRIRDRPPRLPRPRPRPNAPPRP	0.209

Sequence	shrunken log2 fold change
RRIRDRPPRLPRPRPRPNCRPRP	0.0111
RRIRDRPPRLPRPRPRPNCWPRP	-0.113
RRIRDRPPRLPRPRPRPNCYPRP	-0.414
RRIRDRPPRLPRPRPRPNDKPRP	-0.555
RRIRDRPPRLPRPRPRPNDWPRP	-0.0967
RRIRDRPPRLPRPRPRPNERPRP	0.141
RRIRDRPPRLPRPRPRPNEYPRP	0.0406
RRIRDRPPRLPRPRPRPNFDPRP	-0.0173
RRIRDRPPRLPRPRPRPNGFPRP	-0.0113
RRIRDRPPRLPRPRPRPNHDPRP	-0.312
RRIRDRPPRLPRPRPRPNHMPRP	-0.776
RRIRDRPPRLPRPRPRPNHWPRP	0.0735
RRIRDRPPRLPRPRPRPNMEPRP	0.0616
RRIRDRPPRLPRPRPRPNMMPRP	0.0387
RRIRDRPPRLPRPRPRPNNSPRP	-0.422
RRIRDRPPRLPRPRPRPNPTPRP	0.135
RRIRDRPPRLPRPRPRPNPWPRP	0.111
RRIRDRPPRLPRPRPRPNQCPRP	-0.436
RRIRDRPPRLPRPRPRPNQGPRP	0.125
RRIRDRPPRLPRPRPRPNQKPRP	0.18
RRIRDRPPRLPRPRPRPNTGPRP	-0.098
RRIRDRPPRLPRPRPRPNWEPRP	0.0184
RRIRDRPPRLPRPRPRPNYLPRP	-0.126
RRIRDRPPRLPRPRPRPNYTPRP	-0.771
RRIRDRPPRLPRPRPRPPAMPRP	0.87

Sequence	shrunken log2 fold change
RRIRDRPPRLPRPRPRPPDPPRP	0.931
RRIRDRPPRLPRPRPRPPGAPRP	0.564
RRIRDRPPRLPRPRPRPPIQPRP	0.242
RRIRDRPPRLPRPRPRPPKAPRP	-0.122
RRIRDRPPRLPRPRPRPPKDPRP	0.314
RRIRDRPPRLPRPRPRPPLKPRP	0.0742
RRIRDRPPRLPRPRPRPPMCPRP	-0.0883
RRIRDRPPRLPRPRPRPPMHPRP	0.319
RRIRDRPPRLPRPRPRPPMSPRP	0.137
RRIRDRPPRLPRPRPRPPPDPRP	1.14
RRIRDRPPRLPRPRPRPPPSPRP	0.838
RRIRDRPPRLPRPRPRPPQCPRP	0.243
RRIRDRPPRLPRPRPRPPRNPRP	0.27
RRIRDRPPRLPRPRPRPPSHPRP	-0.203
RRIRDRPPRLPRPRPRPPSWPRP	0.102
RRIRDRPPRLPRPRPRPPTKPRP	0.00654
RRIRDRPPRLPRPRPRPPTRPRP	0.596
RRIRDRPPRLPRPRPRPPWTPRP	0.238
RRIRDRPPRLPRPRPRPPYDPRP	-0.00841
RRIRDRPPRLPRPRPRPPYHPRP	-0.302
RRIRDRPPRLPRPRPRPQAKPRP	-0.0241
RRIRDRPPRLPRPRPRPQATPRP	0.403
RRIRDRPPRLPRPRPRPQDGPRP	0.0175
RRIRDRPPRLPRPRPRPQEKPRP	0.0105
RRIRDRPPRLPRPRPRPQERPRP	0.0671
